Measurements: doi:10.1101/2022.09.09.507385 (bioRxiv, 2022)
Residue numbers refer to the chain shown, from its start. Names may count otherwise.

B1: human Pannexin3 (PANX3), full length (natural protein)
chain: MSLAHTAAEYMLSDALLPDRRGPRLKGLRLELPLDRIVKFVAVGSPLLLMSLAFAQEFSSGSPISCFSPSNFSIRQAAYVDSSCWDSLLHHKQDGPGQDKMKSLWPHKALPYSLLALALLMYLPVLLWQYAAVPALSSDLLFIISELDKSYNRSIRLVQHMLKIRQKSSDPYVFWNELEKARKERYFEFPLLERYLACKQRSHSLVATYLLRNSLLLIFTSATYLYLGHFHLDVFFQEEFSCSIKTGLLSDETHVPNLITCRLTSLSIFQIVSLSSVAIYTILVPVIIYNLTRLCRWDKRLLSVYEMLPAFDLLSRKMLGCPINDLNVILLFLRANISELISFSWLSVLCVLKDTTTQKHNIDTVVDFMTLLAGLEPSKPKHLTNSACDEHP
modifications: N-acetylglucosamine (NAG) at N71; disulfide bonds C66-C261 and C84-C242
B2: human Pannexin1 wild type (PANX1WT), full length (natural protein)
chain: MAIAQLATEYVFSDFLLKEPTEPKFKGLRLELAVDKMVTCIAVGLPLLLISLAFAQEISIGTQISCFSPSSFSWRQAAFVDSYCWAAVQQKNSLQSESGNLPLWLHKFFPYILLLFAILLYLPPLFWRFAAAPHICSDLKFIMEELDKVYNRAIKAAKSARDLDMRDGACSVPGVTENLGQSLWEVSESHFKYPIVEQYLKTKKNSNNLIIKYISCRLLTLIIILLACIYLGYYFSLSSLSDEFVCSIKSGILRNDSTVPDQFQCKLIAVGIFQLLSVINLVVYVLLAPVVVYTLFVPFRQKTDVLKVYEILPTFDVLHFKSEGYNDLSLYNLFLEENISEVKSYKCLKVLENIKSSGQGIDPMLLLTNLGMIKMDVVDGKTPMSAEMREEQGNQTAELQGMNIDSETKANNGEKNARQRLLDSSC
B3: human Pannexin1 double mutant W74R/R75D (PANX1DM) (natural protein)
chain: B2 chain with W74R, R75D
B4: human Pannexin1 congenital mutant R217H (PANX1_(R217H)) (natural protein)
chain: B2 chain with R217H

Biological target: the molecule itself
Assay: cryo-EM structure

| Protein | stoichiometry N | binding result |
| --- | --- | --- |
| B1 | 7 | – |
| B2 | – | binds |
| B3 | – | binds |
| B4 | – | binds |
